Source: paper PMC5965250

Molecular target: HyHEL-10 antibody
Test: SPR; binding affinity of the HEL variants to HyHEL-10; who was immobilised is not shown (Fig. S20)

fold weaker binding affinity than native HEL: 6000 fold
Substance: HEL-K96Nvoc (10) (from UniProt P00698 19-147) (natural protein)
